How the values were obtained:
[1] = target: T1, carboxymethylated PP2Ac C-terminal peptide (ac-[…]-CH3) (Homo sapiens, UniProt P67775); experiment: Surface plasmon resonance (Biacore T200), steady state analysis, carboxymethylated PP2Ac peptide; format: binding
T1 construct: The following 11-mer peptides corresponding to the carboxymethylated or non-methylated carboxy-terminus of PP2A and PP4 catalytic subunits were used as antigens
Method: The differential affinity of anti-carboxymethylated PP2Ac antibodies, 7C10-C5 and 2A10, to carboxymethylated PP2A catalytic subunit versus noncarboxymethylated PP2A catalytic subunit was determined by surface plasmon resonance (SPR) on a Biacore T200 (GE Healthcare) at the Core Facility Biomolecular & Cellular Analysis (University of Natural Resources and Life Sciences Vienna BOKU). The affinity of 7C10-C5 for carboxymethylated and noncarboxymethylated catalytic subunit of PP4 (PP4c), a PP2A-related phosphatase, was also determined. […] The KD of the binding of 7C10-C5 (or 2A10) to non-carboxymethylated PP2Ac or PP4c could not be determined because at the highest analyte sample concentration (5000 nM) only very weak binding signals were detected indicating KD values of at least >5000 nM or higher. […]
SPR experiments were performed with the BiacoreT200 instrument (Cytiva). […] The sensorgrams obtained were analyzed with BiacoreT200 Evaluation Software (version 3.1). […]

[2] = target: T2, PP2Ac C-terminal peptide meL309, ac-HVTRRTPDYFL-CH3 (α-carboxymethylated) (human, SMILES …); experiment: SPR, from KD 11 nM against >5000 nM
T2 construct: also called Y307-meL309; mePP2Ac
T2 peptide: Ac-HVTRRTPDYFL-OMe
Source text: (A) Saturation curve of the titration of the α-carboxymethylated PP2Ac C-terminal peptide (SEQ ID NO:18) on 7C10-C5 or 2A10 immobilized on a Series S Sensor Chip CM5 (GE Healthcare, 10296958). […] (B) Saturation curve of the titration of the α-carboxymethylated PP4c C-terminal peptide (SEQ ID NO:20) on 7C10-C5 or 2A10 immobilized on a Series S Sensor Chip CM5 (GE Healthcare, 10296958). […] The KD values were obtained using the fitting tool of the BiacoreT200 Evaluation Software (version 3.1).
The differential affinity of anti-carboxymethylated PP2Ac antibodies, 7C10-C5 and 2A10, to carboxymethylated PP2A catalytic subunit versus noncarboxymethylated PP2A catalytic subunit was determined by surface plasmon resonance (SPR) on a Biacore T200 (GE Healthcare) at the Core Facility Biomolecular & Cellular Analysis (University of Natural Resources and Life Sciences Vienna BOKU). The affinity of 7C10-C5 for carboxymethylated and noncarboxymethylated catalytic subunit of PP4 (PP4c), a PP2A-related phosphatase, was also determined.

B1: 7C10-C5: α-carboxymethylation specific mouse monoclonal IgG1 antibody from single clone hybridoma 7C10-C5 (DSM ACC3350) (antibody)
heavy: MYRMQLLSCIALSLALVTNSDVQLQESGPGLVKPSQSLSLTCSVTGYSITSGYYWNWIRQFPGNKLEWMGYISYDGSNNYNPSLKNRISITRDTSKNQFFLKLNSVTTEDTATYYCAGRFAYWGQGTLVTVSAAKTTAPSVYPLAPVCGDTTGSSVTLGCLVKGYFPEPVTLTWNSGSLSSGVHTFPAVLQSDLYTLSSSVTVTSSTWPSQSITCNVAHPASSTKVDKKIEPRGPTIKPCPPCKCPAPNLLGGPSVFIFPPKIKDVLMISLSPIVTCVVVDVSEDDPDVQISWFVNNVEVHTAQTQTHREDYNSTLRVVSALPIQHQDWMSGKEFKCKVNNKDLPAPIERTISKPKGSVRAPQVYVLPPPEEEMTKKQVTLTCMVTDFMPEDIYVEWTNNGKTELNYKNTEPVLDSDGSYFMYSKLRVEKKNWVERNSYSCSVVHEGLHNHHTTKSFSRTPGK
light: MDMRVPAQLLGLLLLWLSGARCDVLMTQTPLSLPVSLGDQASISCRSSQSIVHSNGNTYLEWYLQKPGQSPKLLIYKVSNRFSGVPDRFSGSGSGTDFTLKINRVEAEDLGVYYCFQGSHVPWTFGGGTKLEIKADAAPTVSIFPPSSEQLTSGGASVVCFLNNFYPKDINVKWKIDGSERQNGVLNSWTDQDSKDSTYSMSSTLTLTKDEYERHNSYTCEATHKTSTSPIVKSFNRNEC
modifications: Amino acid sequence of the recombinant 7C10-C5 heavy chain; Amino acid sequence of the recombinant 7C10-C5 light chain
[1]; SPR steady-state affinity model, carboxymethylated PP2Ac 11-mer peptide (SEQ ID NO:18)
  Kd: ≤ 20 nM
[1]; steady state analysis, PP2A Me peptide, 360 sec contact time, 40 μL/min
  Rmax: 25.14 RU

B2: 7C10-C5 monoclonal antibody (antibody, V domains shown)
VH: DVQLQESGPGLVKPSQSLSLTCSVTGYSITSGYYWNWIRQFPGNKLEWMGYISYDGSNNYNPSLKNRISITRDTSKNQFFLKLNSVTTEDTATYYCAGRFAYWGQGTLVTVSA
VL: DVLMTQTPLSLPVSLGDQASISCRSSQSIVHSNGNTYLEWYLQKPGQSPKLLIYKVSNRFSGVPDRFSGSGSGTDFTLKINRVEAEDLGVYYCFQGSHVPWTFGGGTKLEIK
notes: Used as hybridoma culture supernatant (ELISA, Western blot, IHC) or at 50 µg/mL (SPR); also called 7C10 X63; clone 7C10-C5
[2]
  fold stronger binding than to non-carboxymethylated PP2Ac: ≥ 400 fold

— US20230121197A1, “ANTIBODIES SPECIFICALLY BINDING THE CARBOXYMETHYLATED CATALYTIC SUBUNIT OF PROTEIN PHOSPHATASE 2A” (Medizinische Universität Wien, priority 2020, published 2023)
